A short description of test [1]: Immunization of AAD transgenic mice with phosphopeptide-pulsed DC. As to conditions: mouse.
Test [2] relates to human CD8 T-cells. Description: IFN-γ ELISpot of human CD8 T-cells cultured 7 days with peptide-pulsed DC. The class given is cell-based. To be noted: for donors with pre-existing memory response: CD45RO+ CD8 T-cells from four donors, 7 days, cutoff >50 spots/25,000 cells; for magnitude of phosphopeptide-specific IFN-γ responses of normal donor T-cells: bulk CD8 T-cells, 7 days with peptide-pulsed autologous DC, restimulated with phosphopeptide-pulsed HLA-A2+ targets.

Test [3] relates to HLA-A2+ cancer cell lines. Description: CD107a / IFN-γ flow cytometry after co-culture with human cancer cells. The test is classed as cell-based. The protocol:
(§1) 14-16 hours post-electroporation, phosphopeptide-specific murine TCR-transfected human CD8 T-cells were co-cultured in AIM-V (Life Technologies Corporation, Gaithersburg, Md., United States of America) supplemented with 5% human AB^+ serum (GEMCELL™; Gemini Bio-Products, West Sacramento, Calif., United States of America) with peptide-pulsed or unpulsed C1R-AAD, C1R-A2, or cancer cells endogenously expressing the pIRS-21097-1105 or the pCDC25b38-46 phosphopeptide. Cell surface expression of mouse TCRβ, human CD3, and human CD8 molecules on human CD8 T-cells were assessed using antibodies from either Becton Dickinson Bioscience (San Jose, Calif., United States of America) or eBioScience Inc. (San Diego, Calif., United States of America). During a 5 hour co-culture of stimulator cells with phosphopeptide-specific murine TCR-transfected human CD8-T cells at 37° C., anti-human CD107a-Alexa 647 antibody (eBioScience Inc., San Diego, Calif., United States of America) was added in the presence of 5 μg/ml Brefeldin A (SIGMA-ALDRICH® Co. LLC, St. Louis, Mo., United States of America), 5 μg/ml Monensin (eBioScience Inc., San Diego, Calif., United States of America) and 300 IU/ml human IL-2 (Chiron Corporation, Emeryville, Calif., United States of America). Cells were then stained for surface molecule expression, fixed and permeabilized using CYTOFIX/CYTOPERM™ (Becton Dickinson Bioscience (San Jose, Calif., United States of America) and stained for intracellular cytokine (anti-IFN-γand anti-TNF-α, eBioScience Inc., San Diego, Calif., United States of America). Immunofluoresence was analyzed using the Becton Dickinson FACSCANTO™ I or FACSCANTO™II flow cytometer and analyzed using FlowJo software (Tree Star, Inc., Ashland, Oreg., United States of America).
Whether these transfected human CD8 T-cells could recognize endogenously processed and presented pIRS-21097-1105 or pCDC25b38-46 phosphopeptide on HLA-A2^+ cancer cell lines was investigated. To correlate pIRS-21097-1105-specific T-cell recognition with phosphopeptide expression, an antibody specific for the Ser^1100-phosphorylated IRS-2 protein (pSer^1100-IRS-2) as well as an antibody that recognizes total IRS-2 protein (Zarling et al., 2006) were employed. […] These two cell lines also expressed high levels of pSer^1100-IRS-2 (FIG. 4). […] There is no specific antibody for Ser^42-phosphorylated CDC25b.

The subject of test [4] is AAD+ SLM2 melanoma cells. Nature of the test: Tumor control after adoptive transfer of TCR-expressing human CD8 T-cells. The class given is in vivo, NOD/SCID/IL-2Rγc−/− mice. An excerpt:
Seven to 8 week old male […] mice (The Jackson Laboratory, Bar Harbor, Me., United States of America) were inoculated subcutaneously with 1.4×10^6 AAD^+ SLM2 melanoma cells. 3×10^6 human CD8 T-cells expressing either pIRS-2- or pCDC25b-specific TCR, or 1.5×10^6 of both populations, were adoptively transferred 3 days later. An additional 1.5×10^6 T-cells were given 4 days later. All mice received 1500 CU of IL-2 (R&D Systems, Inc., Minneapolis, Minn., United States of America) […]. every other day for 10 days. Tumor size was measured every 2-3 days with a digital caliper, and calculated as L×W (mm^2). Tumor free survival is equal to the measurement day when the tumor size was >30 mm^2.
Log-rank (Mantel Cox Test) analysis, Cox proportional hazard modeling, and parametric modeling were performed to determine statistical significance where indicated. p values less than 0.05 were considered significant.

Test [5] has as its system C1R-A2 cells pulsed with 1 μM phosphopeptide. Description: In vitro cytotoxicity assay (CFSE). The class given is cell-based, human. To be noted: 5 hours co-culture, pulsed versus unpulsed C1R-A2. The method, then:
Phosphopeptide-specific murine TCR-expressing human CD8 T-cells were co-cultured for 5 hours with a 1:1 mix of C1R-A2 cells pulsed with 1 μM phosphopeptide and stained with 1 μM carboxyfluorescein succinimidyl ester (CFSE; Life Technologies) and unpulsed C1R-A2 cells stained with 0.1 μM CFSE. Specific killing was assessed by evaluating percent loss of the peptide-pulsed population relative to the unpulsed population.

In test [6] the test system is pCDC25b38-46-pulsed C1R-AAD and C1R-A2 targets. Description: CD107a / IFN-γ flow cytometry of TCR-electroporated human CD8 T-cells on pCDC25b peptide-pulsed targets. The test is classed as cell-based. The protocol: Prior to electroporation, donor T-cells were washed three times in serum-free OPTI-MEM® media (Life Technologies Corporation, Gaithersburg, Md., United States of America) and were suspended at 25×10^6/ml. Cells were mixed with 2 μg IVT RNA of each TCR α and β chain per 10^6 cells and transferred to pre-chilled BTX 2 mm gap cuvettes. Using the BTX T820 electroporation system (BTX Instrument Division, Harvard Apparatus, Inc. Holliston, Mass., United States of America), cells were pulsed at 500V for 0.3 msec. Transfected cells were placed in AIM-V® brand serum-free medium (Life Technologies Corporation, Gaithersburg, Md., United States of America) with 5% AB^+ serum (GEMCELL™; Gemini Bio-Products, West Sacramento, Calif., United States of America) for 8-24 hours and evaluated for TCR expression and functionality.
as §1, with “During a 5 hour co-culture of stimulator cells with phosphopeptide-specific murine TCR-transfected human CD8-T cells at 37° C., anti-human CD107a-Alexa 647 antibody (eBioScience Inc., San Diego, Calif., United States of America) was added in the presence of 5 μg/ml Brefeldin A (SIGMA-ALDRICH® Co. LLC, St. Louis, Mo., United States of America), 5 μg/ml Monensin (eBioScience Inc., San Diego, Calif., United States of America) and 300 IU/ml human IL-2 (Chiron Corporation, Emeryville, Calif., United States of America).” left out
(In general: Flow cytometry measures light scatter and fluorescence of single cells or particles in a stream.)

For test [7], the system named is pIRS-2 pulsed C1R-A2 or C1R-AAD target cells. Nature of the test: IFN-γ ELISA of TCR-expressing human CD8 T-cells with pulsed C1R-A2 or C1R-AAD targets (pIRS-2). The test is classed as cell-based. As to conditions: 18-20 hours co-culture. The method, then:
Human CD8 T-cells were electroporated with IVT RNA encoding murine TCR αβ chains specific for pIRS-2 (pIRS2 BK TCR; FIG. 10A; SEQ ID NO: 2) or pDesmuslin (A10 (right to left hatched boxes) or A11 (left to right hatched boxes) TCR chains; FIG. 10B), and assayed 12-14 hours later. TCR-expressing human CD8 T-cells were co-cultured for 18-20 hours with C1R-A2 or C1R-AAD pulsed or unpulsed target cells. Supernatants were then harvested and IFN-γ was detected by ELISA. No RNA controls underwent electroporation with no addition of IVT RNA (open squares).
A general note: An ELISA detects its analyte on a solid surface through an enzyme-linked reagent.

The mark [8] stands for this setting: recognized / evaluated cell lines.

Where no end group is shown, it is not given here. [ ]: non-standard residue; d: D form. pS = N[C@@H](COP(=O)(O)O)C(=O)O

“GLLGpSPVRA (GLLG[pS]PVRA; listed as Homo sapiens) [pCDC25b38-46]”: the “immunogenicity in vivo for HLA-A2 transgenic mice” value in test [1] is “strongly immunogenic”. Moreover, in test [2], the “immunogenicity in vitro for human T-cells” value was “strongly immunogenic”; the “donors with pre-existing memory response” value is “all four and four”; the “magnitude of phosphopeptide-specific IFN-γ responses of normal donor T-cells” value was “surprisingly high”.
On to “RVApSPTSGV (RVA[pS]PTSGV; listed as Homo sapiens) [pIRS-21097-1105]”, for which the “immunogenicity in vivo for HLA-A2 transgenic mice” value in test [1] is reported as “strongly immunogenic”. In addition, in test [2], the “immunogenicity in vitro for human T-cells” value was “strongly immunogenic”, the “donors with pre-existing memory response” value is recorded as 2/4 and the “magnitude of phosphopeptide-specific IFN-γ responses of normal donor T-cells” value is “surprisingly high”.

B1: pCDC25b-specific TCR: murine TCR binding GLLGpSPVRA/HLA-A2; α chain SEQ ID NO: 14, β chain SEQ ID NO: 16; tested expressed in human CD8 T-cells (protein, listed as Mus musculus)
alpha: MKTVTGPLFLCFWLQLNCVSRGEQVEQRPPHLSVREGDSAVIICTYTDPNSYYFFWYKQEPGAGLQLLMKVFSSTEINEGQGFTVLLNKKDQQLSLNLTAAHPGDSAVYFCAVKPGGYKVVFGSGTRLLVSPDIQNPEPAVYQLKDPRSQDSTLCLFTDFDSQINVPKTMESGTFITDKTVLDMKAMDSKSNGAIAWSNQTSFTCQDIFKETNATYPSSDVPCDATLTEKSFETDMNLNFQNLSVMGLRILLLKVAGFNLLMTLRLWSS
beta: MSNTAFPDPAWNTTLLSWVALFLLGTKHMEAAVTQSPRNKVAVTGGKVTLSCNQTNNHNNMYWYRQDTGHGLRLIHYSYGAGSTEKGDIPDGYKASRPSQENFSLILELATPSQTSVYFCASGGDTQYFGPGTRLLVLEDLRNVTPPKVSLFEPSKAEIANKQKATLVCLARGFFPDHVELSWWVNGKEVHSGVSTDPQAYKERNYSYCLSSRLRVSATFWHNPRNHFRCQVQFHGLSEEDKWPEGSPKPVTQNISAEAWGRADCGITSASYHQGVLSATILYEILLGKATLYAVLVSGLVLMAMVKKKNS
With B1, in test [3], the “recognition (CD107a / IFN-γ) of HLA-A2+ melanoma cell lines MelSwift and 1102Mel” value is recorded as “recognized two HLA-A2^+ melanomas”; the “recognition of HLA-A2+ EBV-transformed lymphoblastoid cell line JY” value was “did recognize”; the “recognition of HLA-A2neg cancer cells T47D and SK-Mel-28” value was “did not recognize”; the “recognition of HLA-A2neg melanoma SK-Mel-28 or HLA-A2+ antigen-low ovarian carcinoma OV-90” value was “failed to recognize”. In test [3] (compared with peptide-pulsed targets), the “level of recognition of cancer cells” value is “relatively low”. In addition, in test [3] (setting [8]), the “HLA-A2+ breast carcinomas recognized” value was 3/3, the “HLA-A2+ colorectal carcinomas recognized” value is “did not recognize”, the “HLA-A2+ melanomas recognized” value is 3/4 and the “HLA-A2+ ovarian carcinomas recognized” value is “did not recognize”. Also, the tumor-free survival result in test [4] (T-cells on days 3 and 7 plus IL-2, versus IL-2 only control, tumor-free = tumor size not >30 mm^2) was “enhanced tumor-free survival”. For the same molecule, the “tumor outgrowth in comparison to control animals” value in test [4] (control received IL-2 only) is given as “delayed outgrowth”. Besides, the “specific killing of peptide-pulsed targets” value in test [5] was “killed pCDC25b38-46-pulsed but not pIRS-21097-1105 or pβ-catenin30-39-pulsed targets”. For the same molecule, the “recognition of phosphopeptide-pulsed targets expressing HLA-A2 compared with AAD” value in test [6] is given as “at least as well as those expressing AAD”. For the same molecule, in test [6] (IFN-γ / CD107a), the “response to HLA-A2+ targets pulsed with high levels of the non-phosphorylated peptide” value is recorded as “Neither cell produced IFN-γ or upregulated CD107a”. In test [6] (human CD8 T-cells electroporated with TCR IVT RNA, phosphopeptide-pulsed AAD+ targets, IFN-γ / CD107a, read-out: peptide dose for half-maximal recognition), the EC50 lay in the range of 0.4 to 0.8 nM.

B2: pIRS2 BK TCR: second murine TCR specific for the IRS-2 phosphopeptide; α chain SEQ ID NO: 8, β chain SEQ ID NO: 10 (protein, listed as Mus musculus)
alpha: MLLALLPVLGIHFVLRDAQAQSVTQPDARVTVSEGASLQLRCKYSYSGTPYLFWYVQYPRQGLQLLLKYYSGDPVVQGVNGFEAEFIKSNSSFHLRKASVHWSDSAVYFCAVSAGSGGKLTLGAGTRLQVNLDIQNPEPAVYQLKDPRSQDSTLCLFTDFDSQVNVPKTMESGTFIADKTVLDMKAMDSKSNGAIAWSNQTSFTCQDIFKETNATYPSSDVPCDATLTEKSFETDMNLNFQNLSVMGLRILLLKVAGFNLLMTLRLWSS
beta: MGSRLFFVVLILLCAKHMEAAVTQSPRSKVAVTGGKVTLSCHQANNHDYMYWYRQDTGHGLRLIHYSYVADSTEKGDIPDGYKASRPSQENFSLILELASLSQTAVYFCASSDRDNYAEQFFGPGTRLTVLEDLRNVTPPKVSLFEPSKAEIANKQKATLVCLARGFFPDHVELSWWVNGKEVRSGVSTDPQAYKESNYSYCLSSRLRVSATFWHNPRNHFRCQVQFHGLSEEDKWPEGSPKPVTQNISAEAWGRADCGITSASYHQGVLSATILYEILLGKATLYAVLVSGLVLMAMVKKKNS
With B2, the “recognition of HLA-A2+ targets and effector function (IFN-γ ELISA)” value in test [7] was “conferred recognition of HLA-A2+ targets and effector function”.

The values above are taken from patent publication US10654908B2, “Isolated T cell receptors and methods of use therefor” (University of Virginia Patent Foundation, priority 2014, dated 2020).
